# Experiments:
# [1] = target: CD28 receptor (human) (UniProt P10747); test: cell-based or functional assay
# [2] = target: CD28Ig fusion protein (human) (UniProt P10747); test: competition of ^125I-B7Ig binding to immobilized CD28Ig
# [3] = target: CD28 receptor (human) (UniProt P10747); test: flow cytometry, FITC-conjugated mAb 9.3 on CD28^+ CHO cells
# [4] = target: CD28 receptor (human) (UniProt P10747); test: flow cytometry, FITC-conjugated mAb 9.3 on phytohemagglutinin-stimulated T cells
# [5] = target: CD28Ig fusion protein (human) (UniProt P10747); test: competition of ^125I-B7Ig binding to immobilized CD28Ig by the unlabeled competitor
# [6] = target: B7 antigen (human) (UniProt P33681); test: cell-based or functional assay
# [7] = target: B7 antigen (human) (UniProt P33681); test: flow cytometry, 5E1 cells; -cold minus +cold
# [8] = target: B7 antigen (human) (UniProt P33681); test: flow cytometry, T51 cells; -cold minus +cold
# [9] = target: B7 antigen (human) (UniProt P33681); test: flow cytometry, Raji cells; -cold minus +cold
# [10] = target: B7 antigen (human) (UniProt P33681); test: flow cytometry, Daudi cells; -cold minus +cold
# [11] = target: B7 antigen (human) (UniProt P33681); test: flow cytometry, Jijoye cells; -cold minus +cold
# [12] = target: B7 antigen (human) (UniProt P33681); test: flow cytometry, 5E1 cells preincubated with unlabeled BB-1
# [13] = target: B7 antigen (human) (UniProt P33681); test: flow cytometry, T51 cells preincubated with unlabeled BB-1
# [14] = target: B7 antigen (human) (UniProt P33681); test: flow cytometry, Raji cells preincubated with unlabeled BB-1
# [15] = target: B7 antigen (human) (UniProt P33681); test: flow cytometry, Daudi cells preincubated with unlabeled BB-1
# [16] = target: B7 antigen (human) (UniProt P33681); test: flow cytometry, Jijoye cells preincubated with unlabeled BB-1
# [17] = target: B7 antigen (human) (UniProt P33681); test: flow cytometry, direct staining of 5E1 cells (positive for CD28 adhesion)
# [18] = target: B7 antigen (human) (UniProt P33681); test: flow cytometry, direct staining of T51 cells (positive for CD28 adhesion)
# [19] = target: B7 antigen (human) (UniProt P33681); test: flow cytometry, direct staining of Raji cells (positive for CD28 adhesion)
# [20] = target: B7 antigen (human) (UniProt P33681); test: flow cytometry, direct staining of Daudi cells (positive for CD28 adhesion)
# [21] = target: B7 antigen (human) (UniProt P33681); test: flow cytometry, direct staining of Jijoye cells (positive for CD28 adhesion)
# [22] = target: B7 antigen (human) (UniProt P33681); test: flow cytometry, Namalwa cells (negative for CD28 adhesion); -cold minus +cold
# [23] = target: B7Ig fusion protein (human) (UniProt P33681); test: competition of ^125I-B7Ig binding to immobilized CD28Ig by the unlabeled competitor
# [24] = target: B7 antigen (human) (UniProt P33681); test: flow cytometry, 1A2 cells preincubated with unlabeled BB-1 (negative for CD28 adhesion)
# [25] = target: B7 antigen (human) (UniProt P33681); test: flow cytometry, CEM cells preincubated with unlabeled BB-1 (negative for CD28 adhesion)
# [26] = target: B7 antigen (human) (UniProt P33681); test: flow cytometry, HL60 cells preincubated with unlabeled BB-1 (negative for CD28 adhesion)
# [27] = target: B7 antigen (human) (UniProt P33681); test: flow cytometry, HSB2 cells preincubated with unlabeled BB-1 (negative for CD28 adhesion)
# [28] = target: B7 antigen (human) (UniProt P33681); test: flow cytometry, THP-1 cells preincubated with unlabeled BB-1 (negative for CD28 adhesion)
# [29] = target: B7 antigen (human) (UniProt P33681); test: flow cytometry, direct staining of 1A2 cells (negative for CD28 adhesion; presence of B7 not shown)
# [30] = target: B7 antigen (human) (UniProt P33681); test: flow cytometry, direct staining of HL60 cells (negative for CD28 adhesion; presence of B7 not shown)
# [31] = target: B7 antigen (human) (UniProt P33681); test: flow cytometry, direct staining of HSB2 cells (negative for CD28 adhesion; presence of B7 not shown)
# [32] = target: B7 antigen (human) (UniProt P33681); test: flow cytometry, direct staining of THP-1 cells (negative for CD28 adhesion; presence of B7 not shown)
# [33] = target: B7 antigen (human) (UniProt P33681); test: flow cytometry, direct staining of Namalwa cells (negative for CD28 adhesion; presence of B7 not shown)
# [34] = target: CD28Ig fusion protein (human) (UniProt P10747); test: plate binding assay, ^125I-B7Ig (24 nM) on immobilized CD28Ig
# [35] = target: CD28Ig fusion protein (human) (UniProt P10747); test: competition of ^125I-B7Ig binding to immobilized CD28Ig by unlabeled B7Ig
substance,measurement,setting,value
Monoclonal antibody (mAb) 9.3 (anti-CD28),"[^3H]-T incorporation of PBL, mAb 9.3 (immob.), +Anti-CD3, Exp. 1",[1],137000 cpm
same,"[^3H]-T incorporation of PBL, mAb 9.3 (immob.), -Anti-CD3, Exp. 1",[1],100 cpm
same,"[^3H]-T incorporation of PBL, mAb 9.3 (soln.), +Anti-CD3, Exp. 1",[1],156000 cpm
same,"[^3H]-T incorporation of PBL, mAb 9.3 (soln.), +Anti-CD3, Exp. 2",[1],75800 cpm
same,"[^3H]-T incorporation of PBL, mAb 9.3 (soln.), -Anti-CD3, Exp. 1",[1],300 cpm
same,"[^3H]-T incorporation of PBL, mAb 9.3 (soln.), -Anti-CD3, Exp. 2",[1],400 cpm
same,"adhesion of B7 transfected COS cells to CD28^+ CHO cells without EDTA, blocking by mAb 9.3",[1],40%
same,"adhesion of T51 cells to CD28^+ CHO cells, reduction by mAb 9.3 with EDTA",[1],93%
same,"adhesion of T51 cells to CD28^+ CHO cells, reduction by mAb 9.3 without EDTA",[1],62%
same,half-maximal inhibition of CD28-mediated adhesion of PM lymphoblastoid cells to CD28^+ CHO cells,[1],10 nM
same,fold more effective as a competitor than B7Ig,[2],65 fold
same,mean channel (linear fluorescence units) (linear fluorescence units),[3],116
same,mean channel (linear fluorescence units) (linear fluorescence units),[4],11.3
same,IC50,[5],4.3 nM
mAb 9.3 (Fab fragments),"[^3H]-T incorporation of PHA blasts, stimulation B7^+ CHO, mAb 9.3 Fab",[1],132000 cpm
mAb BB-1 (anti-B7) (antibody),"[^3H]-T incorporation of PHA blasts, stimulation B7^+ CHO, mAb BB-1",[6],98300 cpm
same,"adhesion of Jijoye cells to CD28^+ CHO cells, blocking by mAb",[6],60%
same,SPECIFIC BINDING (mean fluorescence),[7],10.6 linear units
same,SPECIFIC BINDING (mean fluorescence),[8],13.4 linear units
same,SPECIFIC BINDING (mean fluorescence),[9],4.3 linear units
same,SPECIFIC BINDING (mean fluorescence),[10],3.6 linear units
same,SPECIFIC BINDING (mean fluorescence),[11],15 linear units
same,"mean fluorescence, FITC-BB-1 +COLD",[12],2.4 linear units
same,"mean fluorescence, FITC-BB-1 +COLD",[13],3 linear units
same,"mean fluorescence, FITC-BB-1 +COLD",[14],2.8 linear units
same,"mean fluorescence, FITC-BB-1 +COLD",[15],2.8 linear units
same,"mean fluorescence, FITC-BB-1 +COLD",[16],2.8 linear units
same,"mean fluorescence, FITC-BB-1 -COLD",[17],13 linear units
same,"mean fluorescence, FITC-BB-1 -COLD",[18],16.4 linear units
same,"mean fluorescence, FITC-BB-1 -COLD",[19],7.1 linear units
same,"mean fluorescence, FITC-BB-1 -COLD",[20],6.4 linear units
same,"mean fluorescence, FITC-BB-1 -COLD",[21],17.8 linear units
same,SPECIFIC BINDING (mean fluorescence),[22],1.6 linear units
same,IC50,[23],140 nM
same,"mean fluorescence, FITC-BB-1 +COLD",[24],4.3 linear units
same,"mean fluorescence, FITC-BB-1 +COLD",[25],1.9 linear units
same,"mean fluorescence, FITC-BB-1 +COLD",[26],3.1 linear units
same,"mean fluorescence, FITC-BB-1 +COLD",[27],2.3 linear units
same,"mean fluorescence, FITC-BB-1 +COLD",[28],3 linear units
same,"mean fluorescence, FITC-BB-1 -COLD",[29],4.5 linear units
same,"mean fluorescence, FITC-BB-1 -COLD",[30],3.1 linear units
same,"mean fluorescence, FITC-BB-1 -COLD",[31],2.3 linear units
same,"mean fluorescence, FITC-BB-1 -COLD",[32],3.1 linear units
same,"mean fluorescence, FITC-BB-1 -COLD",[33],3.8 linear units
B7Ig fusion protein (from UniProt P33681 35-215; P01857 99-330) (Fc fusion),"[^3H]-T incorporation of PBL, B7Ig (immob.), +Anti-CD3, Exp. 1",[1],174000 cpm
same,"[^3H]-T incorporation of PBL, B7Ig (immob.), -Anti-CD3, Exp. 1",[1],100 cpm
same,radioactivity bound without competitor,[34],7800 cpm
same,IC50,[35],280 nM
